The test addresses GST-tagged proline-rich domain (PRD) of Dyn2 (human). Kind of test: pull-down.

GST-tagged proline-rich domain (PRD) of Dyn2 (human), sequence (P50570 whole entry, the tested form may be a part): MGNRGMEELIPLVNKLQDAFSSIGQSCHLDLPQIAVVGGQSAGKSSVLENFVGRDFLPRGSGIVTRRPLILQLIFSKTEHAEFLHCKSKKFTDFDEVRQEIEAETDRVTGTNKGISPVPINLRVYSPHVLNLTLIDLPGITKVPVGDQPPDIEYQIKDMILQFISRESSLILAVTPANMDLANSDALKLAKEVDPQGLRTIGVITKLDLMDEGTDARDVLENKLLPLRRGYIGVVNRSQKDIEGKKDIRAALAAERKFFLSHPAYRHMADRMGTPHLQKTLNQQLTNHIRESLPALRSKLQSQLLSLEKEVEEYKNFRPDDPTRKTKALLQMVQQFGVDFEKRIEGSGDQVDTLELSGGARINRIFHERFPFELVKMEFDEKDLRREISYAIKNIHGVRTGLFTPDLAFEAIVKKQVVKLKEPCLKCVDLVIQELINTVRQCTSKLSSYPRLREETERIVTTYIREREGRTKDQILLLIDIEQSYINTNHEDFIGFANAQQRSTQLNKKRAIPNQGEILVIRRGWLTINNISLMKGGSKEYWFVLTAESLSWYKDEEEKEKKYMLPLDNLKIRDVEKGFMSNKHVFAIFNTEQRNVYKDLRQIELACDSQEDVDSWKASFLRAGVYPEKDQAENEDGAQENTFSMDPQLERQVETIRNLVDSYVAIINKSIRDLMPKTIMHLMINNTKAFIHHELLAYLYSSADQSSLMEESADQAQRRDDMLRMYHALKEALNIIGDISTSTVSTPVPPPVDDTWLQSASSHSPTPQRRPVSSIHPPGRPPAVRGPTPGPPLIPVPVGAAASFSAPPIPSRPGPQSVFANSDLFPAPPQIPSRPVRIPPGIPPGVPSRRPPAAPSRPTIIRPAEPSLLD

Regarding “His-tagged human Bin1 isoform 8, wild type (natural protein)”, the Kd was determined as 180 nM.

Take “His-tagged human Bin1 isoform 8, CNM-associated mutant K436X (domain or fragment)”: the Kd is 267 nM.

Source of the values: doi:10.1101/2021.10.11.463889.
